Results taken from PMC2965851 (Chemistry & biology, 2008).

Biological target: the molecule itself
Assay: crystal structure

B1: N-(His)10-tagged CalG3 (native) (enzyme, Micromonospora echinospora, UniProt Q8KND7 1-376, looked up)
chain: MLFVSSPGIGHLFPLIQLAWGFRTAGHDVLIAVAEHADRAAAAGLEVVDVAPDYSAVKVFEQVAKDNPRFAETVATRPAIDLEEWGVQIAAVNRPLVDGTMALVDDYRPDLVVYEQGATVGLLAADRAGVPAVQRNQSAWRTRGMHRSIASFLTDLMDKHQVSLPEPVATIESFPPSLLLEAEPEGWFMRWVPYGGGAVLGDRLPPVPARPEVAITMGTIELQAFGIGAVEPIIAAAGEVDADFVLALGDLDISPLGTLPRNVRAVGWTPLHTLLRTCTAVVHHGGGGTVMTAIDAGIPQLLAPDPRDQFQHTAREAVSRRGIGLVSTSDKVDADLLRRLIGDESLRTAAREVREEMVALPTPAETVRRIVERISG
  stoichiometry N: 2
